From patent publication US20170253656A1
Positions count from the first letter of the chain named.

B1: 1193-H04b (scFv)
scFv: EVQLLESGGGLVQPGGSLRLSCAASGFTFTSSWMSWVRQAPGKGLEWVGIINGYNGITYYADSVKGRFTISRDNSKNTLYLQMNSLRAEDTAVYYCAKPSAPGARRFDYWGQGTLVTVSSGGGGSGGGGSGGGGSEIVLTQSPGTLSLSPGEATLSCRASQSVSSSYLAWYQQRPGQAPRLLIYGASSRATGIPDRFSGSGSGTDFTLTISRLEPEDFAVYYCQQHYTTPPTFGQGTKVEIK
B2: 1193-C08 (scFv)
scFv: EVQLLESGGGLVQPGGSLRLSCAASGFTFNNNWMSWVRQAPGKGLEWVGIINGDDGYTYYADRVKGRFTIIRDNSKNTLYLQMNSLRAEDTAVYYCAKVALGRPRRFDYWGQGTLVTVSSGGGGSGGGGSGGGGSEIVLTQSPGTLSLTPGERATLSCRASQSVSSNYLAWYQQKPGQAPRLLIYGASSRATGIPDRFSGSGSGTDFTLTISRLEPEDFAMYYCQQHYTTPPTFGQGTKVEIK
B3: 1193-E06b (scFv)
scFv: EVQLLESGGGLVQPGGSLRLSCAASGFTFNNTDMSWVRQAPGKGLEWVGIINGSGGATNYADSVKGRFTISRDNSKNTLYLQMNSLRAEDTAVYYCAKFENEWEVSMDYWGQGTLVTVSSGGGGSGGGGSGGGGSEIVLTQSPGTLSLSPGERATLSCRASQSVSSSYLAWYQQKPGQAPRLLIYGASSRATGIPDRFSGSGSGTDFTLTISRLEPEDFAVYYCQQHYTTPPTFGQGTKVEIK
B4: 1193-B06 (scFv)
scFv: EVQLLESGGGLVQPGGSLRLSCAASGFTFTGNWMSWVRQAPGKGLEWVGIIYGTSGATYYADSVKGRFTISRDNSKNTLYLQMNSLRAEDTAVYYCAKPSMSGSRGFDYWGQGTLVTVSSGGGGSGGGGSGGGGSEIVLTQSPGTLSLSPGERATLSCRAGQSVSSSYLAWYQQKPGQAPRLLIYGASSRATGIPDRFSGSGSGTDFTLTISRLEPEDFAVYYCQQHYTTPPTFGQGTKVEIK
B5: 1251-A03 heavy chain paired with VL SEQ ID NO: 272 (antibody, V domains shown)
VH: QVQLVESGGGVVQPGRSLRLSCAASGFAFSDHGMHWVRQAPDKGLEWVAVIWYDGSHKIYADSVKGRFTISRDNSKNTLYLQMNSLRAEDTAVYYCARGGSLAGGAVYGTDVWGQGTTVTVSS
VL: DIQMTQSPSSLSASVGDRVTITCRASQGISSWLAWYQQKPEKAPKSLIYAASSLQSGVPSRFSGSGSGTDFTLTISSLQPEDFATYYCQQYNSYPLTFGGGTKVEIK
B6: 1251-D09 heavy chain paired with VL SEQ ID NO: 272 (antibody, V domains shown)
VH: QVQLVESGGGVVQPGRSLRLSCAASGFSFSSYGMHWVRQAPDKGLEWVAVIWYDASIRKYAGSVKGRFTISRDNSKNTLYLQMNSLRAEDTAVYYCARGGTVERGAIYGTDVWGQGTTVTVSS
VL: B5 VL
B7: 1337-A09 light chain paired with VH 1251-A06 (SEQ ID NO: 236) (Fab, V domains shown)
VH: B6 VH with S28D, Y53D, A55G, I57D, K59Y, G62D, V102R, E103V, R104L, Y108H
VL: B5 VL with S30G, S52D, S53R, N92H, S93T
B8: 1251-A02 heavy chain paired with VL SEQ ID NO: 272 (antibody, V domains shown)
VH: B5 VH
VL: B5 VL
B9: 1251-F06 heavy chain paired with VL SEQ ID NO: 272 (antibody, V domains shown)
VH: QVQLVESGGGVVQPGRSLRLSCAASGFTFSSFGMHWVRQAPDKGLEWVAVIWYDGSNEYYADSVKGRFTISRDNSKNTLYLQMNSLRAEDTAVYYCARGGSLVTRGVYGLDVWGQGTTVTVSS
VL: B5 VL
B10: 1251-C03 heavy chain paired with VL SEQ ID NO: 272 (antibody, V domains shown)
VH: QVQLVESGGGVVQPGRSLRLSCAASGFNFSSYGMHWVRQAPDKGLEWVAVIWYDGSIKNYADSVKGRFTISRDNSKNTLYLQMNSLRAEDTAVYYCARGGALMRGEFSGHDVWGQGTTVTVSS
VL: B5 VL
B11: 1251-B08 heavy chain paired with VL SEQ ID NO: 272 (antibody, V domains shown)
VH: B6 VH with S28N, S31D, A55G, R58S, K59Y, G62D, R104H, I107V, T117A
VL: B5 VL
B12: 1251-A06 heavy chain paired with VL SEQ ID NO: 272 (antibody, V domains shown)
VH: B6 VH with S28D, Y53D, A55G, I57D, K59Y, G62D, V102R, E103V, R104L, Y108H
VL: B5 VL
B13: 1251-D06 heavy chain paired with VL SEQ ID NO: 272 (antibody, V domains shown)
VH: QVQLVESGGGVVQPGRSLRLSCAASGFSFGSYGMHWVRQAPDKGLEWVAVVWYDGSKTIYADSVKGRFTISRDNSKNTLYLQMNSLRAEDTAVYYCARGGTLVRGAVYGLDVWGQGTTVTVSS
VL: B5 VL
B14: 1251-E06 heavy chain paired with VL SEQ ID NO: 272 (antibody, V domains shown)
VH: QVQLVESGGGVVQPGRSLRLSCAASGFTFDSYGMHWVRQAPDKGLEWVAVIWYDGSNKVYADSVKGRFTISRDNSKNTLYLQMNSLRAEDTAVYYCARGGMVGQGAMFGLDVWGQGTTVTVSS
VL: B5 VL
B15: 1337-A10 light chain paired with VH 1251-A06 (SEQ ID NO: 236) (Fab, V domains shown)
VH: B6 VH with S28D, Y53D, A55G, I57D, K59Y, G62D, V102R, E103V, R104L, Y108H
VL: B5 VL with L33V, A50G, A51S, S53R, S93T
B16: 1337-A07 light chain paired with VH 1251-A06 (SEQ ID NO: 236) (Fab, V domains shown)
VH: B6 VH with S28D, Y53D, A55G, I57D, K59Y, G62D, V102R, E103V, R104L, Y108H
VL: B5 VL with L33V, A50G, S53R, N92H, S93T
B17: 1337-A08 light chain paired with VH 1251-A06 (SEQ ID NO: 236) (Fab, V domains shown)
VH: B6 VH with S28D, Y53D, A55G, I57D, K59Y, G62D, V102R, E103V, R104L, Y108H
VL: B5 VL with G28D, S30G, L33V, A51S, S52D
B18: 1251-F07 heavy chain paired with VL SEQ ID NO: 272 (antibody, V domains shown)
VH: QVQLVESGGGVVQPGRSLRLSCAASGFTFSSHGMHWVRQAPDKGLEWVAVIWDDGSNEVYADSVKGRFTISRDNSKNTLYLQMNSLRAEDTAVYYCARGGTRIRGLRYGTDVWGQGTTVTVSS
VL: B5 VL
B19: 1251-B09 heavy chain paired with VL SEQ ID NO: 272 (antibody, V domains shown)
VH: B13 VH with S28N, G30S, S31D, V51T, K57R, T58E, I59Y, R104H, V107L, L110N
VL: B5 VL
B20: 1337-A05 light chain paired with VH 1251-A06 (SEQ ID NO: 236) (Fab, V domains shown)
VH: B6 VH with S28D, Y53D, A55G, I57D, K59Y, G62D, V102R, E103V, R104L, Y108H
VL: B5 VL with S30G, S31R, L33V, A50G, S52D, S53R
B21: 1251-G02 heavy chain paired with VL SEQ ID NO: 272 (antibody, V domains shown)
VH: B13 VH with S28T, G30S, V51I, Y53H, T58D, I59Y, T101Q, V103D, R104H, V107I
VL: B5 VL
B22: 1251-D02 heavy chain paired with VL SEQ ID NO: 272 (antibody, V domains shown)
VH: B18 VH with T28S, S30A, N57D, E58R, V59Y, I103V, R104L, L106A, R107I, Y108H
VL: B5 VL
B23: 1337-A06 light chain paired with VH 1251-A06 (SEQ ID NO: 236) (Fab, V domains shown)
VH: B6 VH with S28D, Y53D, A55G, I57D, K59Y, G62D, V102R, E103V, R104L, Y108H
VL: B5 VL with G28D, S30G, L33V, A50G, S52D, S53R
B24: 1337-A04 light chain paired with VH 1251-A06 (SEQ ID NO: 236) (Fab, V domains shown)
VH: B6 VH with S28D, Y53D, A55G, I57D, K59Y, G62D, V102R, E103V, R104L, Y108H
VL: B5 VL with G28D, S30G, S31R, L33V, A50G, S93T
B25: 1447-E08 scFv-Fc (Fc fusion, part only; not given: Fc portion, part only)
chain, part: EVQLLESGGGLVQPGGSLRLSCAASGFTFNDTDMSWVRQAPGKGLEWVGMINGAGGASFYADSVRGRFTISRDNSKNTLYLQMNSLRAEDTAVYYCAKFENQWEVTFDYWGQGTLVTVSSGGGGSGGGGSGGGGSEIVLTQSPGTLSLSPGERATLSCRASQRVAGIDLSWYQQKPGQAPRLLIYGASSRATGIPDRFSGSGSGTDFTLTISRLEPEDFAVYYCQQHNTTPPTFGQGTKVEIK
B26: 1447-G01 scFv-Fc (Fc fusion, part only; not given: Fc portion, part only)
chain, part: EVQLLESGGGLVQPGGSLRLSCAASGFTFNTSDMSWVRQAPGKGLEWVGIINGSGGATNYADSVKGRFTISRDNSKNTLYLQMNSLRAEDTAVYYCAKYENEMEVSMDYWGQGTLVTVSSGGGGSGGGGSGGGGSEIVLTQSPGTLSLSPGERATLSCRASQSVSSRELGWYQQKPGQAPRLLIYGASSRATGIPDRFSGSGSGTDFTLTISRLEPEDFAVYYCQQQCSWPPTFGQGTKVEIK

What follows are binders tested against CD74 on CD74 positive SU-DHL-6 cells, P04233 (assay: cell-based or functional assay).
Chain of CD74 on CD74 positive SU-DHL-6 cells, P04233 (P04233 whole entry): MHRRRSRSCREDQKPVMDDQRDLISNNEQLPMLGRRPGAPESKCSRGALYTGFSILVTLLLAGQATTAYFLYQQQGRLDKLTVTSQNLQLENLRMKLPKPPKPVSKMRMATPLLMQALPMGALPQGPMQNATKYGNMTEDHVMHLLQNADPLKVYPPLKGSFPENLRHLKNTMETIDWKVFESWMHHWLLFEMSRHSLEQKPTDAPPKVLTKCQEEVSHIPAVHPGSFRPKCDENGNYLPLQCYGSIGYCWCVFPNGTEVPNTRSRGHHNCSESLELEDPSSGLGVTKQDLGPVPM
With B1 the 2nd ADC Cell Killing IC50 was 14800 pM. B2 gave a 2nd ADC Cell Killing IC50 of 8660 pM. Binder B3 has a 2nd ADC Cell Killing IC50 of 8670 pM. B4 was tested, and the 2nd ADC Cell Killing IC50 was 10300 pM. In the case of B5, the 2nd ADC Cell Killing IC50 is reported as 10 pM. In the case of B6, the 2nd ADC Cell Killing IC50 is reported as 7 pM. In the case of B7, the 2nd ADC Cell Killing IC50 is reported as 4 pM. For B8, the 2nd ADC Cell Killing IC50 was 9 pM. B9 was tested, and the 2nd ADC Cell Killing IC50 was 17 pM. Binder B10 has a 2nd ADC Cell Killing IC50 of 50 pM. With B11 the 2nd ADC Cell Killing IC50 was 7 pM. B12 was tested, and the 2nd ADC Cell Killing IC50 was 0.2 pM. For B13, the 2nd ADC Cell Killing IC50 was 4 pM. Work on B14 yielded a 2nd ADC Cell Killing IC50 of 15 pM. B15 gave a 2nd ADC Cell Killing IC50 of 6 pM. B16 showed a 2nd ADC Cell Killing IC50 of 4 pM. B17 gave a 2nd ADC Cell Killing IC50 of 7 pM. B18 gave a 2nd ADC Cell Killing IC50 of 9 pM. For B19, the 2nd ADC Cell Killing IC50 was 7 pM. Binder B20 has a 2nd ADC Cell Killing IC50 of 4 pM. B21 showed a 2nd ADC Cell Killing IC50 of 13 pM. B22 showed a 2nd ADC Cell Killing IC50 of 14 pM. With B23 the 2nd ADC Cell Killing IC50 was 4 pM. B24 showed a 2nd ADC Cell Killing IC50 of 4 pM.

The binders below were run against CD74 on CD74 positive SU-DHL-6 cells (UniProt P04233) (assay: cell-based or functional assay).
Chain of CD74 on CD74 positive SU-DHL-6 cells (P04233 whole entry): as above
Binder B25 has a 2nd ADC Cell Killing IC50 of 2560 pM. B26 gave a 2nd ADC Cell Killing IC50 of 650 pM.
